20 molecules from US20060257938A1, “Method of screening for drugs that block ligand binding to a lipid binding protein” (priority 2005, published 2006) can be followed below.

Numbering of substitutions follows the chain as printed. Values joined by “and” are separate entries in the source; they are usually repeats but may differ in a detail not shown here. Equal entries are not always repeated.

To fix the notation:
B1: 62G, 72A (protein, listed as Rattus norvegicus)
chain: AFDGTWKVDRNENYEKFMEKMGINVVKRKLGAHDNLKLTITQEGNKFTVKESSNFRNIDVVGELGVDFAYSAADGTELTGTWTMEGNKLVGKFKRVDNGKELIAVREISGNELIQTYTYEGVEAKRIFKKE
modifications: PEPTIDE (1)...(131) wild-type rat intestinal fatty acid binding protein
B2: 68T, 72A (protein, listed as Rattus norvegicus)
chain: B1 chain with G62F, F68T
modifications: PEPTIDE (1)...(131) wild-type rat intestinal fatty acid binding protein
B3: 62H, 72A (protein, listed as Rattus norvegicus)
chain: B1 chain with G62H
modifications: PEPTIDE (1)...(131) wild-type rat intestinal fatty acid binding protein
B4: 68G, 72A (protein, listed as Rattus norvegicus)
chain: B1 chain with G62F, F68G
modifications: PEPTIDE (1)...(131) wild-type rat intestinal fatty acid binding protein
B5: 68A, 72A (protein, listed as Rattus norvegicus)
chain: B1 chain with G62F, F68A
modifications: PEPTIDE (1)...(131) wild-type rat intestinal fatty acid binding protein
B6: 62T, 72A (protein, listed as Rattus norvegicus)
chain: B1 chain with G62T
modifications: PEPTIDE (1)...(131) wild-type rat intestinal fatty acid binding protein
B7: 62I, 72A (protein, listed as Rattus norvegicus)
chain: B1 chain with G62I
modifications: PEPTIDE (1)...(131) wild-type rat intestinal fatty acid binding protein
B8: 68D, 72A (protein, listed as Rattus norvegicus)
chain: B1 chain with G62F, F68D
modifications: PEPTIDE (1)...(131) wild-type rat intestinal fatty acid binding protein
B9: 68C, 72A (protein, listed as Rattus norvegicus)
chain: B1 chain with G62F, F68C
modifications: PEPTIDE (1)...(131) wild-type rat intestinal fatty acid binding protein
B10: 68M, 72A (protein, listed as Rattus norvegicus)
chain: B1 chain with G62F, F68M
modifications: PEPTIDE (1)...(131) wild-type rat intestinal fatty acid binding protein
B11: 68I, 72A (protein, listed as Rattus norvegicus)
chain: B1 chain with G62F, F68I
modifications: PEPTIDE (1)...(131) wild-type rat intestinal fatty acid binding protein
B12: 68N, 72A (protein, listed as Rattus norvegicus)
chain: B1 chain with G62F, F68N
modifications: PEPTIDE (1)...(131) wild-type rat intestinal fatty acid binding protein
B13: 68V, 72A (protein, listed as Rattus norvegicus)
chain: B1 chain with G62F, F68V
modifications: PEPTIDE (1)...(131) wild-type rat intestinal fatty acid binding protein
B14: 62N, 72A (protein, listed as Rattus norvegicus)
chain: B1 chain with G62N
modifications: PEPTIDE (1)...(131) wild-type rat intestinal fatty acid binding protein
B15: 68L, 72A (protein, listed as Rattus norvegicus)
chain: B1 chain with G62F, F68L
modifications: PEPTIDE (1)...(131) wild-type rat intestinal fatty acid binding protein
B16: 68S, 72A (protein, listed as Rattus norvegicus)
chain: B1 chain with G62F, F68S
modifications: PEPTIDE (1)...(131) wild-type rat intestinal fatty acid binding protein
B17: 68E, 72A (protein, listed as Rattus norvegicus)
chain: B1 chain with G62F, F68E
modifications: PEPTIDE (1)...(131) wild-type rat intestinal fatty acid binding protein
B18: 68Q, 72A (protein, listed as Rattus norvegicus)
chain: B1 chain with G62F, F68Q
modifications: PEPTIDE (1)...(131) wild-type rat intestinal fatty acid binding protein
B19: 102Y, 72A (protein, listed as Rattus norvegicus)
chain: B1 chain with G62F, L102Y
modifications: PEPTIDE (1)...(131) wild-type rat intestinal fatty acid binding protein
B20: 104D1, 72A (protein, listed as Rattus norvegicus)
chain: B1 chain with G62F, A104D
modifications: PEPTIDE (1)...(131) wild-type rat intestinal fatty acid binding protein

A short description of one experiment: Probe fluorescence ratio response to arachidonic acid relative to ADIFAB2. The experiment is classed as binding. Conditions: Arachidonic acid; response relative to ADIFAB2. In a few lines: (§1)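 Each fatty acid's response was expressed relative to ADIFAB2, the rI-FABP-L72A probe, as ΔR/ΔRreference. ΔR is the change in the background-corrected two-wavelength intensity ratio R=Fλ1/Fλ2 from its analyte-free baseline R0. Emission was read near about 420-480 nm for unbound and about 495-580 nm for FFA-bound probe.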
As to B1, the “DR/DR AA” value is 1.43.

For B2, the “DR/DR AA” value was determined as 0.18.

For B3, the “DR/DR AA” value is recorded as 1.42.

Turning to B4, the “DR/DR AA” value was determined as 0.24.

Turning to B5, the “DR/DR AA” value was 0.23.

B6: the “DR/DR AA” value stood at 0.99.

Regarding B7, the “DR/DR AA” value came to 1.40.

As to B8, the “DR/DR AA” value came out at 1.24.

For the molecule B9, the “DR/DR AA” value is 0.18.

B10: the “DR/DR AA” value worked out at 0.52.

Consider B11, for which the “DR/DR AA” value was found to be 0.42.

For B12, the “DR/DR AA” value stood at 0.67.

Turning to B13, the “DR/DR AA” value stood at 0.29.

In the case of B14, the “DR/DR AA” value was determined as 1.40.

Regarding B15, the “DR/DR AA” value was determined as 0.66.

As for B16, the “DR/DR AA” value amounted to 0.20.

With B17, the “DR/DR AA” value is recorded as 0.89.

B18: the “DR/DR AA” value turned out to be 0.47.

Still in this experiment, the particulars now being: arachidonic acid; response relative to ADIFAB2.
Turning to B19, the “DR/DR AA” value is 0.72 and 0.718.

With B20, the “DR/DR AA” value stood at 0.48.

For B15, the “DR/DR AA” value was 0.658.

A further experiment is described as follows: Probe fluorescence ratio response to linolenic acid relative to ADIFAB2. In kind it is binding. The settings on record: response relative to ADIFAB2. In a few lines: as §1
For the molecule B1, the “DR/DR LNA” value was 1.44.

Consider B2, for which the “DR/DR LNA” value was 0.12.

With B3, the “DR/DR LNA” value stood at 1.44.

For the molecule B4, the “DR/DR LNA” value stood at 0.18.

With B5, the “DR/DR LNA” value amounted to 0.19.

B6: the “DR/DR LNA” value was 0.96.

In the case of B7, the “DR/DR LNA” value worked out at 1.38.

Take B8: the “DR/DR LNA” value is on record as 1.23.

Consider B9, for which the “DR/DR LNA” value was 0.25.

B10: the “DR/DR LNA” value was 0.35.

For the molecule B19, the “DR/DR LNA” value is 0.73 and 0.732.

Consider B20, for which the “DR/DR LNA” value is 0.67.

With B11, the “DR/DR LNA” value is on record as 0.36.

Turning to B12, the “DR/DR LNA” value came to 0.60.

Take B13: the “DR/DR LNA” value is 0.22.

Regarding B14, the “DR/DR LNA” value turned out to be 1.40.

For B15, the “DR/DR LNA” value is given as 0.52.

As for B16, the “DR/DR LNA” value was 0.14.

Consider B17, for which the “DR/DR LNA” value is 0.92.

As for B18, the “DR/DR LNA” value was found to be 0.38.

A further experiment in a line: Probe fluorescence ratio response to linoleic acid relative to ADIFAB2. The experiment is classed as binding. Conditions: response relative to ADIFAB2. The procedure, abridged:
as §1
As to B1, the “DR/DR LA” value is reported as 1.44.

B2: the “DR/DR LA” value is reported as 0.11.

For B3, the “DR/DR LA” value is on record as 1.40.

Consider B4, for which the “DR/DR LA” value came to 0.17.

On to B5, for which the “DR/DR LA” value was 0.18.

As for B6, the “DR/DR LA” value is on record as 1.02.

Turning to B7, the “DR/DR LA” value worked out at 1.36.

For the molecule B8, the “DR/DR LA” value is given as 1.23.

On to B9, for which the “DR/DR LA” value amounted to 0.12.

As for B10, the “DR/DR LA” value was found to be 0.34.

With B19, the “DR/DR LA” value is 0.82 and 0.818.

As to B20, the “DR/DR LA” value turned out to be 0.71.

For B11, the “DR/DR LA” value was found to be 0.37.

For the molecule B12, the “DR/DR LA” value was found to be 0.67.

As to B13, the “DR/DR LA” value is 0.23.

Turning to B14, the “DR/DR LA” value was 1.34.

As to B15, the “DR/DR LA” value is reported as 0.53.

For the molecule B16, the “DR/DR LA” value is on record as 0.14.

Regarding B17, the “DR/DR LA” value was 0.96.

Take B18: the “DR/DR LA” value is listed as 0.43.

Another experiment in a line: Probe fluorescence ratio response to palmitic acid relative to ADIFAB2. The settings on record: response relative to ADIFAB2. In kind it is binding. The procedure, abridged: as §1
With B1, the “DR/DR PA” value is on record as 1.26.

As for B2, the “DR/DR PA” value came to 0.10.

Take B3: the “DR/DR PA” value is on record as 1.24.

In the case of B4, the “DR/DR PA” value was 0.12.

As to B5, the “DR/DR PA” value was found to be 0.13.

Turning to B6, the “DR/DR PA” value came to 0.65.

As for B7, the “DR/DR PA” value stood at 1.27.

As to B8, the “DR/DR PA” value worked out at 0.52.

Take B9: the “DR/DR PA” value came to 0.13.

For B10, the “DR/DR PA” value came out at 0.33.

Turning to B19, the “DR/DR PA” value is 0.39 and 0.387.

For B20, the “DR/DR PA” value is 0.34.

With B11, the “DR/DR PA” value was determined as 0.35.

With B12, the “DR/DR PA” value came out at 0.35.

Regarding B13, the “DR/DR PA” value was found to be 0.19.

On to B14, for which the “DR/DR PA” value is 1.29.

Take B15: the “DR/DR PA” value was 0.52 and 0.524.

Take B16: the “DR/DR PA” value is reported as 0.10.

As to B17, the “DR/DR PA” value turned out to be 0.53.

On to B18, for which the “DR/DR PA” value was found to be 0.28.

A further experiment in a line: Probe fluorescence ratio response to oleic acid relative to ADIFAB2. In kind it is binding. The settings on record: response relative to ADIFAB2. In a few lines: as §1
With B1, the “DR/DR OA” value turned out to be 1.46.

For B2, the “DR/DR OA” value amounted to 0.13.

On to B3, for which the “DR/DR OA” value was determined as 1.40.

Turning to B4, the “DR/DR OA” value is recorded as 0.21.

Regarding B5, the “DR/DR OA” value came out at 0.19.

Regarding B6, the “DR/DR OA” value turned out to be 1.00.

For the molecule B7, the “DR/DR OA” value was 1.37.

Turning to B8, the “DR/DR OA” value worked out at 1.13.

B9: the “DR/DR OA” value came out at 0.29.

Take B10: the “DR/DR OA” value was determined as 0.35.

With B19, the “DR/DR OA” value is recorded as 0.86.

For the molecule B20, the “DR/DR OA” value is 0.64.

On to B11, for which the “DR/DR OA” value came to 0.39.

Regarding B12, the “DR/DR OA” value came out at 0.63.

B13: the “DR/DR OA” value turned out to be 0.25.

With B14, the “DR/DR OA” value was 1.37.

Consider B15, for which the “DR/DR OA” value was 0.55 and 0.547.

Regarding B16, the “DR/DR OA” value is 0.14.

Consider B17, for which the “DR/DR OA” value is listed as 0.91.

In the case of B18, the “DR/DR OA” value came to 0.45.
